From publication PMC5074314, “Maltase protein of Ogataea (Hansenula) polymorpha is a counterpart to the resurrected ancestor protein ancMALS of yeast maltases and isomaltases” (Yeast (Chichester, England), 2016)

Columns and labels:
[1] = target: T1, Op MAL1 (maltase protein MAL1 of Ogataea polymorpha) (Ogataea angusta, UniProt Q9P8G8); experiment: inhibition of α-pNPG hydrolysis (p-nitrophenol release); assay type: biochemical; settings: competitive; 0.1-3.0 mM α-pNPG; 100 mM K-phosphate pH 6.5, 0.1 mM EDTA, 37 °C; 5 min pre-incubation; read-out: K i (mM) of Op maltase
T1 sequence (Q9P8G8 1-564): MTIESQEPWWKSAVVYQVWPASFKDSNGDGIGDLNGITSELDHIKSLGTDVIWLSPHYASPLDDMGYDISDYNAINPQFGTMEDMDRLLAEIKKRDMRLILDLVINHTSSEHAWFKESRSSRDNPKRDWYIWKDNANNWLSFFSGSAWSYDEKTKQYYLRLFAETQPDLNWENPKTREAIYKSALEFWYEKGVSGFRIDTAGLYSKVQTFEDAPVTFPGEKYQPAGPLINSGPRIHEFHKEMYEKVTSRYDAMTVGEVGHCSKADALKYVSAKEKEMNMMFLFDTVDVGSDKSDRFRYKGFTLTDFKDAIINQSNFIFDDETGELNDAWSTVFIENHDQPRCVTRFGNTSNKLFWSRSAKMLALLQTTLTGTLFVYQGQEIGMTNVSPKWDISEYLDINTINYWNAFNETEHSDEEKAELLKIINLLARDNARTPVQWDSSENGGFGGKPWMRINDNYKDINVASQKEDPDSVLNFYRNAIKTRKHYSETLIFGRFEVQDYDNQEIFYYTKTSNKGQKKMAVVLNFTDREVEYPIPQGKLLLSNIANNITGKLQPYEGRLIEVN

[2] = substrate: O=[N+]([O-])c1ccc(O[C@H]2O[C@H](CO)[C@@H](O)[C@H](O)[C@H]2O)cc1; experiment: purified protein; settings: 100 mM K-phosphate pH 6.5, 0.1 mM EDTA, 37 °C
[3] = substrate: OC[C@H]1O[C@@](CO)(O[C@H]2O[C@H](CO)[C@@H](O)[C@H](O)[C@H]2O)[C@@H](O)[C@@H]1O; experiment: initial rate of glucose release; assay type: biochemical, Ogataea angusta; settings: 100 mM K-phosphate pH 6.5, 0.1 mM EDTA, 37 °C
Text: (§1) initial rate of glucose release on Op MAL1 (maltase protein MAL1 of Ogataea polymorpha)

[4] = substrate: CO[C@H]1O[C@H](CO)[C@@H](O)[C@H](O)[C@H]1O; experiment: initial rate of glucose release; assay type: biochemical, Ogataea angusta; settings: 100 mM K-phosphate pH 6.5, 0.1 mM EDTA, 37 °C
Text: as §1

## OC[C@H]1OC(O)[C@H](O)[C@@H](O)[C@@H]1O (stereo partly drawn) [D-Glucose]
[1]
  Ki: 5.1 ± 0.7 mM

## C[C@H]1O[C@H](O[C@H]2[C@H](O)[C@@H](O)[C@@H](O[C@H]3[C@H](O)[C@@H](O)C(O)O[C@@H]3CO)O[C@@H]2CO)[C@H](O)[C@@H](O)[C@@H]1N[C@H]1C=C(CO)[C@@H](O)[C@H](O)[C@H]1O (some centres unmarked) [Acarbose]
[1]
  Ki: 0.0065 ± 0.0008 mM

B1: Op MAL1 (maltase protein MAL1 of Ogataea polymorpha) (Ogataea angusta) (protein)
chain: T1 sequence (Q9P8G8 1-564)
[2]
  Km: 0.52 ± 0.05 mM
  kcat: 141 s⁻¹
  kcat/Km: 272000 M⁻¹ s⁻¹
[3]
  Km: 25.1 ± 2.4 mM
  kcat: 183 ± 6.95 s⁻¹
  kcat/Km: 7290 M⁻¹ s⁻¹
[4]
  Km: 35.5 ± 3.3 mM
  kcat: 30.1 ± 1.1 s⁻¹
  kcat/Km: 848 M⁻¹ s⁻¹
